# From patent US10745460B2, “Peptides and combination of peptides for use in immunotherapy against various tumors” (Immatics Biotechnologies GmbH, priority 2015, dated 2020)
# Biological target: HLA-A*02:01 (Homo sapiens, UniProt P04439, D140Y/D185E/D98H/E176V/E277Q/G131W/G231S/I119V/I121R/I166T/I218V/L300P/L318F/N151K/N90K/P208A/P217A/Q86G/Q94H/R138H/R169H/T345S)
# Test: MHC binding assay: UV-ligand exchange with β2m ELISA (peptide exchange yield)
# Details: binding to HLA-A*02:01 evaluated by peptide exchange yield (UV-ligand exchange, β2m ELISA)
# From the text: Candidate peptides for T cell based therapies according to the present invention were further tested for their MHC binding capacity (affinity). The individual peptide-MHC complexes were produced by UV-ligand exchange, where a UV-sensitive peptide is cleaved upon UV-irradiation, and exchanged with the peptide of interest as analyzed. Only peptide candidates that can effectively bind and stabilize the peptide-receptive MHC molecules prevent dissociation of the MHC complexes. To determine the yield of the exchange reaction, an ELISA was performed based on the detection of the light chain (β2m) of stabilized MHC complexes. The assay was performed as generally described in Rodenko et al. (Rodenko et al., 2006).
# 96 well MAXISorp plates (NUNC) were coated over night with 2 ug/ml streptavidin in PBS at room temperature, washed 4× and blocked for 1 h at 37° C. in 2% BSA containing blocking buffer. Refolded HLA-A*02:01/MLA-001 monomers served as standards, covering the range of 15-500 ng/ml. Peptide-MHC monomers of the UV-exchange reaction were diluted 100 fold in blocking buffer. Samples were incubated for 1 h at 37° C., washed four times, incubated with 2 ug/ml HRP conjugated anti-β2m for 1 h at 37° C., washed again and detected with TMB solution that is stopped with […]. Absorption was measured at 450 nm. Candidate peptides that show a high exchange yield (preferably higher than 50%, most preferred higher than 75%) are generally preferred for a generation and production of antibodies or fragments thereof, and/or T cell receptors or fragments thereof, as they show sufficient avidity to the MHC molecules and prevent dissociation of the MHC complexes.
row,Substance,Peptide exchange
1,180 (RLYEEEIRI; listed as Homo sapiens) [compound 180],+++ (≥50 = +++)
2,165 (SLLDYEVSI; listed as Homo sapiens) [compound 165],+++ (≥50 = +++)
3,207 (KLFETVEEL; listed as Homo sapiens) [compound 207],+++ (≥50 = +++)
4,14 (YTFSGDVQL; listed as Homo sapiens) [compound 14],+++ (≥50 = +++)
5,42 (KQMSISTGL; listed as Homo sapiens) [compound 42],++ (≥20% = ++)
6,270 (TLLTFFHEL; listed as Homo sapiens) [compound 270],+++ (≥50 = +++)
7,79 (TVLEEIGNRV; listed as Homo sapiens) [compound 79],++ (≥20% = ++)
8,89 (SLAETIFIV; listed as Homo sapiens) [compound 89],+++ (≥50 = +++)
9,102 (GLYPVTLVGV; listed as Homo sapiens) [compound 102],+++ (≥50 = +++)
10,154 (AIIKEIQTV; listed as Homo sapiens) [compound 154],++ (≥20% = ++)
11,61 (ALYPKEITL; listed as Homo sapiens) [compound 61],+++ (≥50 = +++)
12,260 (ALNESLVEC; listed as Homo sapiens) [compound 260],+++ (≥50 = +++)
13,106 (VLLGSVVIFA; listed as Homo sapiens) [compound 106],++ (≥20% = ++)
14,142 (LLDAAHASI; listed as Homo sapiens) [compound 142],++ (≥20% = ++)
15,97 (KLFEKSTGL; listed as Homo sapiens) [compound 97],+++ (≥50 = +++)
16,85 (KLLDKPEQFL; listed as Homo sapiens) [compound 85],++ (≥20% = ++)
17,161 (NLLDENVCL; listed as Homo sapiens) [compound 161],++++ (≥75% = ++++)

row,Substance,Peptide exchange
1,76 (FTAEFLEKV; listed as Homo sapiens) [compound 76],+++ (≥50 = +++)
2,242 (KLQEEIPVL; listed as Homo sapiens) [compound 242],+++ (≥50 = +++)
3,54 (YLVPGLVAA; listed as Homo sapiens) [compound 54],+++ (≥50 = +++)
4,86 (SLFSNIESV; listed as Homo sapiens) [compound 86],+++ (≥50 = +++)
5,122 (SIIDTELKV; listed as Homo sapiens) [compound 122],+++ (≥50 = +++)
6,286 (FLTEMVHFI; listed as Homo sapiens) [compound 286],+++ (≥50 = +++)
7,50 (ILLSVLHQL; listed as Homo sapiens) [compound 50],+++ (≥50 = +++)
8,41 (IVTEIISEI; listed as Homo sapiens) [compound 41],+++ (≥50 = +++)
9,283 (ALSELLQQV; listed as Homo sapiens) [compound 283],+++ (≥50 = +++)
10,166 (LLGDSSFFL; listed as Homo sapiens) [compound 166],+++ (≥50 = +++)
11,124 (ALLLRLFTI; listed as Homo sapiens) [compound 124],++ (≥20% = ++)
12,160 (TLQEWLTEV; listed as Homo sapiens) [compound 160],+++ (≥50 = +++)
13,149 (NMADGQLHQV; listed as Homo sapiens) [compound 149],++ (≥20% = ++)
14,4 (VLFGELPAL; listed as Homo sapiens) [compound 4],+++ (≥50 = +++)
15,259 (GPGIFPPPPPQP; listed as Homo sapiens) [compound 259],+ (≥10% = +)
16,221 (IMLNSVEEI; listed as Homo sapiens) [compound 221],++ (≥20% = ++)
